Experimental data taken from the supplement of paper PMC12764529.
± gives the half width of the 95% confidence interval.

Legend:
[1] = folding stability dG unfold from trypsin proteolysis; higher = more stable
Summary of the method: (§1)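 Digests were run with trypsin and chymotrypsin at 11 concentrations in threefold dilutions, plus a no-protease condition, on designed mini-proteins in a PA-tagged cDNA display construct. The mini-proteins were under 80 residues, had no cysteine, and were kept only when AlphaFold2 dimer inter-PAE was above 15. After sequencing, Bayesian fitting of the counts gave K50, from which unfolding free energy was derived against a sequence-predicted unfolded-state K50 and a shared folded-state K50, per protease or combined.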

[2] = folding stability dG unfold from chymotrypsin proteolysis; higher = more stable
Summary of the method: as §1

[3] = folding stability dG unfold (combined trypsin and chymotrypsin); higher = more stable
Summary of the method: as §1

Sequence | folding stability dG unfold [1] | folding stability dG unfold [2] | folding stability dG unfold [3]
SAGSAAIKALLEKHPKPEVIEVTRLPGSGTLVIKVDDEDHVVPTPPGGFTETLTVDENGNVLSVEPHPASAG [r5_329_JUSTAS] | 1.79 ± 0.11 kcal/mol | 1.65 ± 0.064 kcal/mol | 1.74 ± 0.14 kcal/mol
PKYVIKAVNPKVGEVKTIEVDDDPEKAIEALKALKKADPDIKFYISGVKSDELIEAAKEAGLEDLNFTEVES [r1_114_TrMRF] | 3.2 ± 0.15 kcal/mol | 4.02 ± 0.27 kcal/mol | 4.02 ± 0.32 kcal/mol
SAGGSAGGSAGGAPVEVKTAVFRHPDNPRWYVLRVARLPGTGRLVVVLFDPETGEFAVFPSAGGSAGGSAGG [r7_923_TrMRF] | 0.755 ± 0.087 kcal/mol | 2.18 ± 0.16 kcal/mol | 1.67 ± 0.16 kcal/mol
SAGGSMKEIVELGEVEFEEDSVALKVKFKVKLVFYDPETGEKVEEREEELEVYFGGDTLEFSPVEGSAGGSA [r2_271_TrMRF] | 1.49 ± 0.045 kcal/mol | 2.373 ± 0.02 kcal/mol | 2.08 ± 0.11 kcal/mol
SAGGSAGGSTVTIEIPGFKTPEEIAKAIAEKTGKKVKEVKVEKDKKNKTYTITVTVDGKEITFSAGGSAGGS [r12_935_TrROS_Hall] | 0.333 ± 0.082 kcal/mol | 1.03 ± 0.087 kcal/mol | 0.805 ± 0.15 kcal/mol
SAGNPDKPPKPRTYTLEIEIKLPPGDPDQAKELAHEIAHEIRDLGIKDTEVEYDPGNGRVRISITFTFWSAG [r5_512_TrROS] | 2.8 ± 0.076 kcal/mol | 3.49 ± 0.09 kcal/mol | 3.27 ± 0.28 kcal/mol
SAGGSAGGSAGKDKGQKEVPEINIRIEPVNFHWEYDKGNGKPKSIHFMFKIRYPNGREITSAGGSAGGSAGG [r11_890_TrROS] | 1.24 ± 0.1 kcal/mol | 0.674 ± 0.29 kcal/mol | 1.15 ± 0.28 kcal/mol
SAGGSAGGSAGGMSITFTAPDGSKITATIDPDGNVLVEVHLGDKPYYVKGPVETLLKNAPSAGGSAGGSAGG [r7_178_TrMRF] | 0.325 ± 0.027 kcal/mol | 0.904 ± 0.1 kcal/mol | 0.719 ± 0.07 kcal/mol
SAGGSAGGSAGGELNIDDIKIDWFPADDMDDRYIFTEKIRGPNGKPTMEVTFWLPAGDLSAGGSAGGSAGGS [r10_155_TrROS] | 0.262 ± 0.068 kcal/mol | -0.261 ± 0.62 kcal/mol | 0.00836 ± 0.18 kcal/mol
SAGGSALRIPPGEKIKVRNPDNGKPFEFKVTNWQMNPNGNAYFQVEMTSDGKKVKWPIPLDDIEVVSAGGSA [r15_62_TrROS] | -0.397 ± 0.21 kcal/mol | 0.358 ± 0.37 kcal/mol | 0.0757 ± 0.28 kcal/mol
SITIKIPLKPGYPYALRIHFYNPNGKPREMDMNVTRKPDGEVEIPIKIPDKDIPPGQDIRIQSIEIYPMKSA [r9_359_TrROS] | 1.5 ± 0.038 kcal/mol | 2.59 ± 0.1 kcal/mol | 1.99 ± 0.26 kcal/mol
SAGGSAGGSAGGAPPPPVKVKVVEIEEEGGERRIRVENEDTGEVVELRVPKGAEVLEELSAGGSAGGSAGGS [r10_1038_TrROS_Hall] | 1.32 ± 0.048 kcal/mol | 1.37 ± 0.055 kcal/mol | 1.23 ± 0.16 kcal/mol
SAGGSAGGSAGGGSMTLTEVFVDPETGTRTVRTTTLYTLPNGTLTSTTTTTVEPLPGELSAGGSAGGSAGGS [r10_1258_JUSTAS] | 1.51 ± 0.022 kcal/mol | 1.87 ± 0.025 kcal/mol | 1.76 ± 0.043 kcal/mol
SAGGSAGGSAGGSGDPNNPVTLLVLDVPSPEPAGTVYYFPDGYVAVNFPSINRTLVFYGSAGGSAGGSAGGS [r4_78_TrMRF] | 0.766 ± 0.036 kcal/mol | 1.42 ± 0.15 kcal/mol | 1.2 ± 0.17 kcal/mol
SAGGGMMVLKVSQPVLLLSTVTLPNGFPKFLPVSPLSLETTVTFTGSDQDAEELAAELKAQGATVTEESAGG [r13_452_JUSTAS] | 0.585 ± 0.025 kcal/mol | 0.719 ± 0.12 kcal/mol | 0.715 ± 0.078 kcal/mol
MKEYLIKIKITITDPNGKKREIEITVLVPAEELTEEQLKELLEKAKELAEKLKEKGYEVKVEVEIIPLEELS [r1_221_TrROS_Hall] | 3.83 ± 0.27 kcal/mol | 4.23 ± 0.21 kcal/mol | 4.25 ± 0.27 kcal/mol

Sequence | folding stability dG unfold [1] | folding stability dG unfold [2] | folding stability dG unfold [3]
SAGKPPPVKIEVNYRRTPDNSYRAEVQIRLPDGKPLFEVTYPFDNPDDPEARERFVRKARNLAKELANSAGG [r19_13_TrROS] | 1.9 ± 0.14 kcal/mol | 1.8 ± 0.19 kcal/mol | 2.14 ± 0.5 kcal/mol
SKTFYAGLDVYFDPDSDELTALVGVRSEDGSYEPSLEEVAREVAAKLRELGYEVEVEPLPGYARIRVKPPSA [r9_510_TrMRF] | 1.67 ± 0.039 kcal/mol | 1.72 ± 0.069 kcal/mol | 1.71 ± 0.057 kcal/mol
SAGGSAGGMKEGEEFEIELPDKYKVKIRVKDNIIEVEFPPGLRVRAEILENGEVKVYLPPELKPSAGGSAGG [r6_970_TrMRF] | 2.04 ± 0.087 kcal/mol | 1.42 ± 0.048 kcal/mol | 1.7 ± 0.21 kcal/mol
SAMITVEIVDPLPDIANLSEEEAKALAEELAEEYAKKKFPNENVKITKVEVELEPETPEIRVTVTLELKSAG [r14_310_JUSTAS] | 2.09 ± 0.16 kcal/mol | 2.56 ± 0.083 kcal/mol | 2.37 ± 0.15 kcal/mol
SMLEEVLERIEAMPPGSVVKVTLTFPDGTKRTETLKLSAEEVKEKLEKIKKENPDIKIEVKVEVYSTEEESA [r9_37_JUSTAS] | 3.33 ± 0.39 kcal/mol | 4.05 ± 0.36 kcal/mol | 4.39 ± 0.42 kcal/mol
SAGGSAKELIIKIKIKVKVNGKTYEIEIEIKAESIEEAIEAIKKKLEEEGLEIEIVEIEIIPKEELSAGGSA [r15_165_TrROS_Hall] | 3 ± 0.086 kcal/mol | 3.08 ± 0.081 kcal/mol | 2.99 ± 0.1 kcal/mol
SAGGSAGGSAGGSMELKLKVVEKTETRSATPGEDEPLPGNSSVTYEGNTLTTTTLVLVPLSAGGSAGGSAGG [r7_506_JUSTAS] | -0.728 ± 0.28 kcal/mol | -0.736 ± 0.44 kcal/mol | -0.72 ± 0.34 kcal/mol
SAGDALKDIFPGLEIEPHEKPVKVPPGKPVEFAFIIRMPDGEIMIFDMHFNPGGEVRVRVLTIKLPEKSAGG [r19_125_TrROS] | 2.88 ± 0.16 kcal/mol | 4.81 ± 0.14 kcal/mol | 3.96 ± 0.27 kcal/mol
SAGGSAGGSAGGPMEPIELTFMIPHPNGHPIVAKTEIWRMKNGFFIKPEIYNPDGNPIPSAGGSAGGSAGGS [r10_1056_TrROS] | -0.153 ± 0.25 kcal/mol | -0.377 ± 0.3 kcal/mol | -0.207 ± 0.18 kcal/mol
SAGGSAKYYYIVAEIDLPNKKVRFVKKVKKGDVEKFKAEIKKAFPGKKIKVKVIEFESEEEAKKAASAGGSA [r15_889_TrMRF] | 3.13 ± 0.14 kcal/mol | 4.373 ± 0.043 kcal/mol | 4.01 ± 0.088 kcal/mol
SAGGSKIPLDNIKVITIMYNPKEGMYWISIRFPNNGKEVVFPYEDAPKILEKFPEIKEIEVYPFPPSAGGSA [r2_159_TrROS] | 2.25 ± 0.11 kcal/mol | 2.76 ± 0.036 kcal/mol | 2.59 ± 0.084 kcal/mol
SAGGSAGMIEVEIRPTPEGGYEVLVKFYGPGGVEVEEKKYRFGSEEEAKKFLEELAKKNGYSVKIRSAGGSA [r15_242_JUSTAS] | 2.11 ± 0.056 kcal/mol | 3.74 ± 0.027 kcal/mol | 3.3 ± 0.067 kcal/mol
SAGGSAGGSAGGPEVEVFYERGPDGPLKVVVVVRNPDTPEVTVLVADLEPEKALEFLEALSAGGSAGGSAGG [r7_105_TrMRF] | 2 ± 0.14 kcal/mol | 1.86 ± 0.084 kcal/mol | 1.89 ± 0.18 kcal/mol
SAGGSAGGSAGKPKVKKITLKNPATGETVEAEVVEVDGYLVVRVRNKDDPEKTETFVFKLSAGGSAGGSAGG [r17_73_TrROS_Hall] | 2.17 ± 0.051 kcal/mol | 2.58 ± 0.049 kcal/mol | 2.48 ± 0.12 kcal/mol
SGLKDVISVTVTQSPTAGEVPVVTAYSPDGSRTFNLAPEETEAFLKALREAGYNVVVTDRVFVPVPAELGSA [r9_607_JUSTAS] | 1.676 ± 0.016 kcal/mol | 1.38 ± 0.052 kcal/mol | 1.56 ± 0.052 kcal/mol
